From US20210009693A1 (MABSPACE BIOSCIENCES SUZHOU, published 2021)
Where two headings read alike, the source gives them in different places.

Assays:
[1] = molecular target: T1, hPD-L2-Fc (human, UniProt Q9BQ51 20-219); assay: ELISA, plate coated with hPD-L2-Fc
T1 construct: Acrobiosystems PD2-H5251; also called human PD-L2 protein; not shown: Fc tag
T1 sequence (looked up): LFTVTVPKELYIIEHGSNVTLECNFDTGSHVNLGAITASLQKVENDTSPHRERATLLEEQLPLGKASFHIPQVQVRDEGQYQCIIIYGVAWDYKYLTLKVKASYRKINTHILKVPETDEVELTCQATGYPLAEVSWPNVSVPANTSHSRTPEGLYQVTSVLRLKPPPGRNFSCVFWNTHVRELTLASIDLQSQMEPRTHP

[2] = molecular target: T2, wild type human PD-L1-Fc protein (SEQ ID NO: 107) (human); assay: ELISA on captured PD-L1-Fc, as in Example 18A
T2 construct: Extracellular human PD-L1 (amino acid 19-238) with Fc fragment of human IgG1, expressed in 293T cells and used as culture supernatant; also called WT PD-L1; wild-type PD-L1
T2 sequence (chain, as listed by the source limits assumed): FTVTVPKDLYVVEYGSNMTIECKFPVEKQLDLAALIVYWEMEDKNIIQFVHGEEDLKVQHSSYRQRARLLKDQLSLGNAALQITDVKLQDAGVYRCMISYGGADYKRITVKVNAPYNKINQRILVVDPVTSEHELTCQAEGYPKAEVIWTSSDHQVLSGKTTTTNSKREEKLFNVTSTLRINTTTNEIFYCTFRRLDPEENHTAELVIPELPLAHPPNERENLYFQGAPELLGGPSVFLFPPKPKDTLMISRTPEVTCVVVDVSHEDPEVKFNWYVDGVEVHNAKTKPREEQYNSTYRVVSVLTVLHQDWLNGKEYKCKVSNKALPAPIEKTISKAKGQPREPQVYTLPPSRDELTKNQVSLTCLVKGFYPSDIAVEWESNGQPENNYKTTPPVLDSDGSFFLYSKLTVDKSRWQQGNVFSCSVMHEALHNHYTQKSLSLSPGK

[3] = molecular target: T3, human PD-L1-Fc mutant E58A (human); assay: ELISA on captured PD-L1-Fc, as in Example 18A
T3 construct: Position 58 counts on native human PD-L1 (NP_054862.1); also called E58A mutant
T3 sequence (chain, as listed by the source E58A E58A limits assumed): as the sequence (chain, as listed by the source limits assumed) above, with E40A counted along it

[4] = molecular target: T4, human PD-L1 expressed on cells (human, UniProt Q9NZQ7 19-290); assay: FACS, IFN-gamma stimulated HCC827 cells
T4 construct: whole, on cells; also called hPD-L1 expressed on HCC827; hPD-L1 on MC38/hPD-L1 cells
T4 sequence (Q9NZQ7 19-290): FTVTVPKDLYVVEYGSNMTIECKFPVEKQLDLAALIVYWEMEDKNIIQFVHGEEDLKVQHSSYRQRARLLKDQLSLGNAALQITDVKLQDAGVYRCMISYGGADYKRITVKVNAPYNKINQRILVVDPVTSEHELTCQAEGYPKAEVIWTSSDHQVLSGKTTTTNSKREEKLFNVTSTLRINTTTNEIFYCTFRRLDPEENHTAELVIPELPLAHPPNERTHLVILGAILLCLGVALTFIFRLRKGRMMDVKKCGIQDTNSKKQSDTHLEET
Protocol: Log phase IFN-γ stimulated (500U/ml for 2 days) HCC827 cells were collected and resuspended in blocking buffer (5% BSA+PBS). 2×10\hat{ }5 cells were added to each tube and then washed once with PBS (1500 rpm, 5 mins, RT). The 100 μl/tube serial diluted PD-L1 antibodies purified from hybridoma supernatant in blocking buffer were added into corresponding tubes and were incubated at 4° C. for 1 hr. The cells were then washed twice with 1 ml PBS, followed by adding 100 μl/tube of 2nd antibody (1:400 anti-mIgG (H+L)-PE, Cell signaling) in blocking buffer. The cells were incubated at 4° C. for 1 hr and then washed twice with PBS, followed by resuspending cells in 150 μl PBS for each sample. The cells were then transferred into FACS tube and the bindings of the antibodies to the cells were detected using flow cytometry (BD Accuri C6) (see FIG. 5A).

[5] = molecular target: T5, Recombinant Human PD-L1/CD274 Protein (hPD-L1-his) (human, UniProt Q9NZQ7 19-238); assay: ELISA, purified mouse antibody on coated hPD-L1-his
T5 construct: range 19-238; ACRO Biosystem PD1-H5229, made in HEK293; also called human PD-L1-his; hPD-L-his
T5 sequence (Q9NZQ7 other isoform, or with tags, fused parts or gaps limits assumed): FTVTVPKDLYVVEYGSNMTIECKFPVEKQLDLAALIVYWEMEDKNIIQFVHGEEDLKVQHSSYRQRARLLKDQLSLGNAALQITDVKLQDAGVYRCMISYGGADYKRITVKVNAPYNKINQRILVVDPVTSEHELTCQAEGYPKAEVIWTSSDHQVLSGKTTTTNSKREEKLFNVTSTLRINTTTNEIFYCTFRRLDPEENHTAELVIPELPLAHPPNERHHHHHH
Protocol: High-binding clear polystyrene 96 well plates (Nunc) were coated with 100 μl/well of a 0.5 μg/ml hPD-L1-his in high pH coating buffer and incubated overnight 4° C. Then plates were washed once on an automatic plate washer using washing buffer (PBS+0.1% Tween 20 (Sigma)). 200 μl of blocking buffer (PBS+1% BSA+1% normal goat serum+0.05% Tween-20) was added to each well and incubated 2 hours at room temp. Then add serially diluted purified antibodies with dilution buffer (PBS+1% BSA+1% normal goat serum+0.01% Tween-20) and incubate for 1 hour at RT. The plates were then washed 3 times using the method described above. 100 μl/well of a solution of HRP conjugated goat anti-mouse Fc antibody (Abcam) in dilution buffer was then added to each well of the plate. After that the ELISA plates were allowed to incubate for 60 min at RT then plates were washed 3 times with 250 μl/well washing buffer. Finally, 100 μl/well of TMB was added to each well and was terminated using 0.64M H₂SO₄. The plates were read on a Thermo Multiscan FC at 450 nM (see FIG. 3).

[6] = molecular target: T4, human PD-L1 expressed on cells; assay: blocking FACS on HCC827 cells; blocked ligand: biotinylated hPD-1-N297A
Protocol: Log phase IFN-γ stimulated (500U/ml for 2 days) HCC827 cells were collected and resuspended in blocking buffer (5% BSA+PBS). 2×10\hat{ }5 cells were added to each tube and then washed once with PBS (1500 rpm, 5 mins, RT). […] The cells were incubated at 4° C. for 1 hr and then washed twice with PBS, followed by resuspending cells in 150 μl PBS for each sample.

[7] = molecular target: T6, Recombinant Mouse PD-L1/CD274 Protein (mPD-L1-his) (mouse, UniProt Q9EP73 19-238); assay: ELISA, 20 ug/ml antibody on coated mouse PD-L1 (his-tagged per text, mPD-L1-Fc per sheet title)
T6 construct: range 19-238; ACRO Biosystem PD1-M5220; also called mouse PD-L1-his
T6 sequence (Q9EP73 other isoform, or with tags, fused parts or gaps limits assumed): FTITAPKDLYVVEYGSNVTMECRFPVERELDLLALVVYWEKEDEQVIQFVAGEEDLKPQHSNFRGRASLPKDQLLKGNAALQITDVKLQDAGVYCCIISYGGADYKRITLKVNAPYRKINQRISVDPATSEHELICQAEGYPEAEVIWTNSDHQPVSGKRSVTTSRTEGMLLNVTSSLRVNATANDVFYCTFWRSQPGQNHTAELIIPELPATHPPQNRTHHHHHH
Procedure, shortened: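 Wells coated overnight at 4 °C with 1 μg/ml mouse PD-L1-his, blocked 2 h with BSA/goat serum buffer; purified hybridoma mouse antibodies at 20 μg/ml bound 1 h at RT. Detection by HRP goat anti-mouse Fc (60 min, RT), TMB, acid stop, absorbance at 450 nm.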

[8] = molecular target: T5, Recombinant Human PD-L1/CD274 Protein …; assay: ELISA on coated hPD-L1-his
[9] = molecular target: T4, human PD-L1 expressed on cells; assay: FACS, IFN-gamma stimulated HCC827 cells; remark: listed apart in the source
Protocol: Log phase IFN-γ stimulated (500U/ml for 2 days) HCC827 cells were collected and resuspended in blocking buffer (5% BSA+PBS). 2×10\hat{ }5 cells were added to each tube and then washed once with PBS (1500 rpm, 5 mins, RT). The 100 μl/tube serial diluted biotinylated PD-L1 antibodies with blocking buffer were added into corresponding tubes and incubate at 4° C. for 1 hr.

[10] = molecular target: T5, Recombinant Human PD-L1/CD274 Protein …; assay: ELISA on coated hPD-L1-his; bound at pH7.4, then 2 h at pH5.5
[11] = molecular target: T5, Recombinant Human PD-L1/CD274 Protein …; assay: ELISA on coated hPD-L1-his; bound at pH7.4, then 2 h at pH7.4
[12] = molecular target: T4, human PD-L1 expressed on cells; assay: blocking FACS on HCC827 cells; blocked ligand: biotinylated hPD-1-N297A; remark: listed apart in the source
Protocol: Log phase IFN-γ stimulated (500U/ml for 2 days) HCC827 cells were collected and resuspended in blocking buffer (5% BSA+PBS). 2×10\hat{ }5 cells were added to each tube and then washed once with PBS (1500 rpm, 5 mins, RT). The 100 μl/tube serial diluted PD-L1 antibodies (see FIG. 8) with blocking buffer were added into corresponding tubes and incubate at 4° C. for 1 hr. […] After washing for three times with PBS, 100 μl/tube streptavidin-PE 1:200 (EBiosciences) in blocking buffer was added to each tube. The cells were incubated at 4° C. for 1 hr and then washed twice with PBS, followed by resuspending cells in 150 μl PBS for each sample. The cells were then transferred into FACS tube and the binding of the antibodies to the cells were detected with flow cytometry (ACEA Bioscience Novocyte).

[13] = molecular target: T7, Human PD-L1/CD274 with C-Fc Tag (hPD-L1-Fc) (human, UniProt Q9NZQ7 19-238); assay: blocking ELISA on coated hPD-L1-Fc; blocked ligand: biotinylated hPD-1-N297A
T7 construct: range 19-238; ACRO Biosystem PD1-H5258, made in HEK293; also called human PD-L1-Fc; not shown: Fc fragment of human IgG1 at C-terminus
T7 sequence (Q9NZQ7 19-238 limits assumed): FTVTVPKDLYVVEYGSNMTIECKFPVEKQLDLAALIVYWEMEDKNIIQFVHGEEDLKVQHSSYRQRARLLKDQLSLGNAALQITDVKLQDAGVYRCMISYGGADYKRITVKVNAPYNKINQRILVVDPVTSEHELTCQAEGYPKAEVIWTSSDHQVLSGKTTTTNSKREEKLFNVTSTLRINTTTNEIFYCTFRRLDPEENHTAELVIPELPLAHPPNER

[14] = molecular target: T6, Recombinant Mouse PD-L1/CD274 Protein …; assay: ELISA, plate coated with mouse PD-L1-his
[15] = molecular target: T5, Recombinant Human PD-L1/CD274 Protein …; assay: ELISA on coated human PD-L1-his
Protocol: (§1) High-binding clear polystyrene 96-well plates (Nunc) were coated with 100 μl/well of a 0.5 μg/ml human or cynomolgus (cyno) PD-L1-his in high pH coating buffer and incubated overnight at 4° C. Then plates were washed once on an automatic plate washer using washing buffer (PBS+0.1% Tween 20 (Sigma)). 200 μl of blocking buffer (PBS+1% BSA+1% normal goat serum+0.05% Tween-20) was added to each well and incubated for 2 hours at room temperature. Then add serial diluted antibodies with dilution buffer (PBS+1% BSA+1% normal goat serum+0.01% Tween-20) and incubated for 1 hour at RT. The plates were then washed 3 times using the method described above. […] After that the ELISA plates were allowed to incubate for 60 min at RT then plates were washed 3 times with 250 μl/well washing buffer. Finally, 100 μl/well of TMB was added to each well and the reaction was terminated using 0.64M H₂SO₄. The plates were read on a Thermo Multiscan FC at 450 nM (see FIG. 6A to 6E).

[16] = molecular target: T8, Cynomolgus PD-L1/CD274 with His tag (cPD-L1-His) (cynomolgus); assay: ELISA on coated cynomolgus PD-L1-his
T8 construct: range 19-238; ACRO Biosystem PD1-C52H4; also called cynomolgus (cyno) PD-L1-his; cynomolgis PD-L1-his
Protocol: as §1

[17] = molecular target: T5, Recombinant Human PD-L1/CD274 Protein …; assay: ELISA on coated hPD-L1-his; bound at pH7.4, then 2 h at pH5.5; remark: listed apart in the source
[18] = molecular target: T5, Recombinant Human PD-L1/CD274 Protein …; assay: ELISA on coated hPD-L1-his; bound at pH7.4, then 2 h at pH7.4; remark: listed apart in the source

B1: 22C9 (antibody, V domains shown)
VH: QVQLQQSGAELVKPGASVKLSCKASGYTFTSYWMHWVWQRPGQGLEWIGMIHPNSDITNCNENFKHTVTLTVDKSSSTAYMQLSSLTSEDSAVFYCARSDGSSYWYFDVWGTGTTVTVSS
VL: SIVMTQTPKFLSVSAGDRVTITCKAGQSVNNDVAWYQQKPGQSPKLLIYYASNRYTGVPDRFTGSGYGTDFTFTISTVQAEDLAVYFCQQDFSSPLTFGAGTKLELK
notes: Mouse monoclonal from hybridoma; also called mouse monoclonal antibody 22C9
For B1, the binding result [1] was “no binding (tested: 2 ug/ml)”, the “Mean OD450” value [2] was 1.92 OD450 and the “OD450 nM of sample-1” value [2] was 1.9 OD450. The “OD450 nM of sample-2” value [2] was 1.94 OD450, the “% of binding of Ab to E58A mutant vs. that to WT PD-L1” value [3] was 17.2% and the “Mean OD450” value [3] was 0.33 OD450. For the same binder, the “OD450 nM of sample-1” value [3] was 0.35 OD450, the “OD450 nM of sample-2” value [3] was 0.309 OD450 and the “EC50 (read off the curve)” value [4] was about 0.1 µg/mL. The “EC50 (read off the curve)” value [5] was about 0.08 µg/mL, the “IC50 (read off the curve)” value [6] was about 0.2 µg/mL and the binding result [7] was “no binding (tested: 20 ug/ml)”.

B2: 23F11-C (antibody, V domains shown)
VH: QVQLQQPGAELVKPGASVKLSCKASGYSFTTYWMHWVKQRPGQGLEWIGMIQPNSGGTKYNEKFKKKATLTVDKSSTTASMELSSLTSEDSAVYYCARGAGTVDYFDYWGQGSTLTVSS
VL: DIVLTHSPVSLAVSLGQRATISCRASESVDIYGNSFMHWYQQKPGQPPKLLIYRASNLESGIPARFSGSGSRTDFTLTINPVEADDVATYYCQQSTEDPYTFGGGTKLEIK
notes: Mouse variable regions fused to a human IgG1 constant region; also called 23F11-chimeric; chimeric antibody 23F11
For B2, the “EC50 (read off the curve)” value [8] was about 0.004 µg/mL, the “EC50 (read off the curve)” value [9] was about 0.04 µg/mL and the “EC50 (read off the curve)” value [10] was about 0.03 µg/mL. For the same binder, the “EC50 (read off the curve)” value [11] was about 0.02 µg/mL, the “IC50 (read off the curve)” value [12] was about 0.04 µg/mL and the “IC50 (read off the curve)” value [13] was about 0.05 µg/mL.

B3: 4B6-C (antibody, V domains shown)
VH: EVQLQQSGPELVKPGASVKISCKASGYVFTDYYMNWVKQSHGKSLEWIGDINPNNGGTSYNHKFKGKATVTVDKSSRTAYMELLSLTSEDSAVYYCVKWGDGPFAYWGQGTLVTVSA
VL: DIVMTQSQKFMSTSVGDRVSITCKASQNVGAAVAWYQQKPGQSPKLLIYSASNRYTGVPDRFTGSGSGTDFTLTISNMQSEDLADYFCQQYSNYPTFGSGTKLGIK
notes: Mouse variable regions fused to a human IgG1 constant region; also called 4B6-chimeric; chimeric antibody 4B6
With B3 the binding result [14] was “no binding (tested: 20 ug/ml)”, the “EC50 (read off the curve)” value [15] was about 0.01 µg/mL and the “EC50 (read off the curve)” value [16] was about 0.01 µg/mL. For the same binder, the “EC50 (read off the curve)” value [17] was about 0.02 µg/mL and the “EC50 (read off the curve)” value [18] was about 0.01 µg/mL.
